Measured values from the Human Domainome abundance scans (Beltran et al. 2025).
± gives the uncertainty stated by the source.

B1: 3'-5' exoribonuclease 1, residues 65 to 114; numbered along this chain, Q8IV48 (parent)
chain: VYKEIAITNGCINRMSKEELRAKLSEFKLETRGVKDVLKKRLKNYYKKQK

Variants of: B1
Experiment: abundance fitness (aPCA) (normalised: wild type 0, dead -1); higher = more abundant; growth selection in yeast, the domain comes from the species named
Settings: Homo sapiens

**Q.** Which abundance fitness does the source give for VYKEIAITNGCINRMSKEELRAKLSEFKLETRGVKDHLKKRLKNYYKKQK [V37H] here?
**A.** Its abundance fitness is -0.695 ± 0.069.

**Q.** For VYKEIAITNGCINRMSKEELRAKLSEFKLETRGVKDALKKRLKNYYKKQK [V37A], which abundance fitness is on record?
**A.** Its abundance fitness is -0.037 ± 0.061.

**Q.** Which abundance fitness does the source give for VYKEIAITNGCINRMSKEELRAKLSEFKLETRGVKDLLKKRLKNYYKKQK [V37L] here?
**A.** The abundance fitness was -0.544 ± 0.052.

**Q.** For VYKEIAITNGCINRMSKEELRAKLSEFKLETRGVKDYLKKRLKNYYKKQK [V37Y], which abundance fitness is on record?
**A.** Its abundance fitness is -0.853 ± 0.095.

**Q.** For VYKEIAITNGCINRMSKEELRAKLSEFKLETRGVKDILKKRLKNYYKKQK [V37I], which abundance fitness is on record?
**A.** Its abundance fitness is -0.228 ± 0.046.

**Q.** For VYKEIAITNGCINRMSKEELRAKLSEFKLETRGVKDCLKKRLKNYYKKQK [V37C], which abundance fitness is on record?
**A.** Its abundance fitness is -0.191 ± 0.078.

**Q.** Which abundance fitness does the source give for VYKEIAITNGCINRMSKEELRAKLSEFKLETRGVKDSLKKRLKNYYKKQK [V37S] here?
**A.** Its abundance fitness is -0.136 ± 0.055.

**Q.** With VYKEIAITNGCINRMSKEELRAKLSEFKLETRGVKDQLKKRLKNYYKKQK [V37Q] as the variant, how does the abundance fitness read?
**A.** The abundance fitness was -0.148 ± 0.075.

**Q.** With VYKEIAITNGCINRMSKEELRAKLSEFKLETRGVKDPLKKRLKNYYKKQK [V37P] as the variant, how does the abundance fitness read?
**A.** Its abundance fitness is -1.02 ± 0.11.

**Q.** For VYKEIAITNGCINRMSKEELRAKLSEFKLETRGVKDRLKKRLKNYYKKQK [V37R], which abundance fitness is on record?
**A.** Its abundance fitness is -0.124 ± 0.066.

**Q.** Which abundance fitness does the source give for VYKEIAITNGCINRMSKEELRAKLSEFKLETRGVKDNLKKRLKNYYKKQK [V37N] here?
**A.** The abundance fitness was -0.321 ± 0.076.

**Q.** With VYKEIAITNGCINRMSKEELRAKLSEFKLETRGVKDGLKKRLKNYYKKQK [V37G] as the variant, how does the abundance fitness read?
**A.** Its abundance fitness is -0.639 ± 0.08.

**Q.** Which abundance fitness does the source give for VYKEIAITNGCINRMSKEELRAKLSEFKLETRGVKDELKKRLKNYYKKQK [V37E] here?
**A.** Its abundance fitness is -0.096 ± 0.098.

**Q.** Which abundance fitness does the source give for VYKEIAITNGCINRMSKEELRAKLSEFKLETRGVKDTLKKRLKNYYKKQK [V37T] here?
**A.** The abundance fitness was 0.01 ± 0.063.

**Q.** With VYKEIAITNGCINRMSKEELRAKLSEFKLETRGVKDDLKKRLKNYYKKQK [V37D] as the variant, how does the abundance fitness read?
**A.** The abundance fitness was -0.25 ± 0.11.

**Q.** Which abundance fitness does the source give for VYKEIAITNGCINRMSKEELRAKLSEFKLETRGVKDFLKKRLKNYYKKQK [V37F] here?
**A.** Its abundance fitness is -0.562 ± 0.053.

**Q.** Which abundance fitness does the source give for VYKEIAITNGCINRMSKEELRAKLSEFKLETRGVKDWLKKRLKNYYKKQK [V37W] here?
**A.** Its abundance fitness is -0.763 ± 0.12.

**Q.** For VYKEIAITNGCINRMSKEELRAKLSEFKLETRGVKDKLKKRLKNYYKKQK [V37K], which abundance fitness is on record?
**A.** Its abundance fitness is 0.027 ± 0.075.

**Q.** For VYKEIAITNGCINRMSKEELRAKLSEFKLETRGVKDVLRKRLKNYYKKQK [K39R], which abundance fitness is on record?
**A.** The abundance fitness was -0.114 ± 0.068.

**Q.** With VYKEIAITNGCINRMSKEELRAKLSEFKLETRGVKDVLYKRLKNYYKKQK [K39Y] as the variant, how does the abundance fitness read?
**A.** The abundance fitness was -0.917 ± 0.09.

**Q.** For VYKEIAITNGCINRMSKEELRAKLSEFKLETRGVKDVLLKRLKNYYKKQK [K39L], which abundance fitness is on record?
**A.** Its abundance fitness is -0.632 ± 0.051.

**Q.** With VYKEIAITNGCINRMSKEELRAKLSEFKLETRGVKDVLVKRLKNYYKKQK [K39V] as the variant, how does the abundance fitness read?
**A.** The abundance fitness was -0.196 ± 0.063.

**Q.** With VYKEIAITNGCINRMSKEELRAKLSEFKLETRGVKDVLHKRLKNYYKKQK [K39H] as the variant, how does the abundance fitness read?
**A.** The abundance fitness was -1.11 ± 0.099.

**Q.** Which abundance fitness does the source give for VYKEIAITNGCINRMSKEELRAKLSEFKLETRGVKDVLFKRLKNYYKKQK [K39F] here?
**A.** Its abundance fitness is -0.909 ± 0.059.

**Q.** Which abundance fitness does the source give for VYKEIAITNGCINRMSKEELRAKLSEFKLETRGVKDVLMKRLKNYYKKQK [K39M] here?
**A.** Its abundance fitness is -0.521 ± 0.11.

**Q.** Which abundance fitness does the source give for VYKEIAITNGCINRMSKEELRAKLSEFKLETRGVKDVLCKRLKNYYKKQK [K39C] here?
**A.** The abundance fitness was -0.396 ± 0.067.

**Q.** For VYKEIAITNGCINRMSKEELRAKLSEFKLETRGVKDVLTKRLKNYYKKQK [K39T], which abundance fitness is on record?
**A.** Its abundance fitness is -0.458 ± 0.055.

**Q.** Which abundance fitness does the source give for VYKEIAITNGCINRMSKEELRAKLSEFKLETRGVKDVLAKRLKNYYKKQK [K39A] here?
**A.** Its abundance fitness is -0.36 ± 0.051.

**Q.** Which abundance fitness does the source give for VYKEIAITNGCINRMSKEELRAKLSEFKLETRGVKDVLQKRLKNYYKKQK [K39Q] here?
**A.** Its abundance fitness is -0.398 ± 0.089.

**Q.** Which abundance fitness does the source give for VYKEIAITNGCINRMSKEELRAKLSEFKLETRGVKDVLWKRLKNYYKKQK [K39W] here?
**A.** Its abundance fitness is -1.04 ± 0.2.

**Q.** With VYKEIAITNGCINRMSKEELRAKLSEFKLETRGVKDVLGKRLKNYYKKQK [K39G] as the variant, how does the abundance fitness read?
**A.** The abundance fitness was -0.721 ± 0.1.

**Q.** With VYKEIAITNGCINRMSKEELRAKLSEFKLETRGVKDVLEKRLKNYYKKQK [K39E] as the variant, how does the abundance fitness read?
**A.** Its abundance fitness is -0.939 ± 0.14.

**Q.** Which abundance fitness does the source give for VYKEIAITNGCINRMSKEELRAKLSEFKLETRGVKDVLPKRLKNYYKKQK [K39P] here?
**A.** Its abundance fitness is -0.979 ± 0.091.

**Q.** Which abundance fitness does the source give for VYKEIAITNGCINRMSKEELRAKLSEFKLETRGVKDVLNKRLKNYYKKQK [K39N] here?
**A.** Its abundance fitness is -0.582 ± 0.057.

**Q.** For VYKEIAITNGCINRMSKEELRAKLSEFKLETRGVKDVLDKRLKNYYKKQK [K39D], which abundance fitness is on record?
**A.** The abundance fitness was -0.967 ± 0.18.

**Q.** With VYKEIAITNGCINRMSKEELRAKLSEFKLETRGVKDVLIKRLKNYYKKQK [K39I] as the variant, how does the abundance fitness read?
**A.** The abundance fitness was -0.382 ± 0.055.

**Q.** With VYKEIAITNGCINRMSKEELRAKLSEFKLETRGVWDVLKKRLKNYYKKQK [K35W] as the variant, how does the abundance fitness read?
**A.** Its abundance fitness is -0.815 ± 0.088.

**Q.** For VYKEIAITNGCINRMSKEELRAKLSEFKLETRGVCDVLKKRLKNYYKKQK [K35C], which abundance fitness is on record?
**A.** The abundance fitness was -0.58 ± 0.052.

**Q.** Which abundance fitness does the source give for VYKEIAITNGCINRMSKEELRAKLSEFKLETRGVPDVLKKRLKNYYKKQK [K35P] here?
**A.** The abundance fitness was -0.797 ± 0.05.

**Q.** Which abundance fitness does the source give for VYKEIAITNGCINRMSKEELRAKLSEFKLETRGVRDVLKKRLKNYYKKQK [K35R] here?
**A.** Its abundance fitness is -0.52 ± 0.041.

**Q.** With VYKEIAITNGCINRMSKEELRAKLSEFKLETRGVMDVLKKRLKNYYKKQK [K35M] as the variant, how does the abundance fitness read?
**A.** Its abundance fitness is -0.765 ± 0.064.

**Q.** With VYKEIAITNGCINRMSKEELRAKLSEFKLETRGVIDVLKKRLKNYYKKQK [K35I] as the variant, how does the abundance fitness read?
**A.** The abundance fitness was -0.475 ± 0.047.

**Q.** Which abundance fitness does the source give for VYKEIAITNGCINRMSKEELRAKLSEFKLETRGVSDVLKKRLKNYYKKQK [K35S] here?
**A.** Its abundance fitness is -0.48 ± 0.038.

**Q.** Which abundance fitness does the source give for VYKEIAITNGCINRMSKEELRAKLSEFKLETRGVTDVLKKRLKNYYKKQK [K35T] here?
**A.** Its abundance fitness is -0.314 ± 0.041.

**Q.** For VYKEIAITNGCINRMSKEELRAKLSEFKLETRGVADVLKKRLKNYYKKQK [K35A], which abundance fitness is on record?
**A.** Its abundance fitness is -0.347 ± 0.047.

**Q.** Which abundance fitness does the source give for VYKEIAITNGCINRMSKEELRAKLSEFKLETRGVDDVLKKRLKNYYKKQK [K35D] here?
**A.** Its abundance fitness is -0.772 ± 0.063.

**Q.** For VYKEIAITNGCINRMSKEELRAKLSEFKLETRGVYDVLKKRLKNYYKKQK [K35Y], which abundance fitness is on record?
**A.** Its abundance fitness is -0.827 ± 0.057.

**Q.** For VYKEIAITNGCINRMSKEELRAKLSEFKLETRGVGDVLKKRLKNYYKKQK [K35G], which abundance fitness is on record?
**A.** Its abundance fitness is -0.845 ± 0.052.

**Q.** For VYKEIAITNGCINRMSKEELRAKLSEFKLETRGVNDVLKKRLKNYYKKQK [K35N], which abundance fitness is on record?
**A.** The abundance fitness was -0.697 ± 0.05.

**Q.** With VYKEIAITNGCINRMSKEELRAKLSEFKLETRGVQDVLKKRLKNYYKKQK [K35Q] as the variant, how does the abundance fitness read?
**A.** Its abundance fitness is -0.767 ± 0.075.

**Q.** For VYKEIAITNGCINRMSKEELRAKLSEFKLETRGVVDVLKKRLKNYYKKQK [K35V], which abundance fitness is on record?
**A.** Its abundance fitness is -0.262 ± 0.044.

**Q.** With VYKEIAITNGCINRMSKEELRAKLSEFKLETRGVLDVLKKRLKNYYKKQK [K35L] as the variant, how does the abundance fitness read?
**A.** Its abundance fitness is -0.698 ± 0.041.
